In paper PMC4933286:

Experiments:
[1] = biological target: BTV-1 VP5 mutant 2 (R10L/K13L/K14L) (bluetongue virus serotype 1 (BTV-1)); assay: native gel or EMSA
[2] = biological target: BTV-1 VP5 mutant 3 (K3L/R6L/R10L/K13L/K14L) (bluetongue virus serotype 1 (BTV-1)); assay: native gel or EMSA

Row | Substance | stoichiometry N [1] | stoichiometry N [2]
1 | BTV-1 VP5 mutant 2 (R10L/K13L/K14L) (natural protein) | 3 | 
2 | BTV-1 VP5 mutant 3 (K3L/R6L/R10L/K13L/K14L) (natural protein) |  | 3
